Measured values published in patent US20200085917A1.

How the values were obtained:
Experiment in all cases: GST pull-down, LC-MS/MS
[1] = molecular target: Tomm20_IPI:IPI00120715.1 (mouse) (UniProt Q9DCC8)
[2] = molecular target: T1, Nipsnap1_IPI:IPI00115824.1 (mouse) (UniProt O55125)
T1 sequence (looked up): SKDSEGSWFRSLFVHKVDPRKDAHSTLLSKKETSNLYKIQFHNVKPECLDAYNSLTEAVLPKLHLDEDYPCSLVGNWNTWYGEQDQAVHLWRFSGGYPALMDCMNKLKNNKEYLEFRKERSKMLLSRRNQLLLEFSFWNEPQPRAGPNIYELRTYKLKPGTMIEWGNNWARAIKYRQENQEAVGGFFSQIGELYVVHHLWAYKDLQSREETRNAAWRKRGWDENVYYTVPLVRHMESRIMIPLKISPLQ

[3] = molecular target: T2, Atp5f1_IPI:IPI00341282.2 (mouse) (UniProt Q9CQQ7)
T2 sequence (looked up): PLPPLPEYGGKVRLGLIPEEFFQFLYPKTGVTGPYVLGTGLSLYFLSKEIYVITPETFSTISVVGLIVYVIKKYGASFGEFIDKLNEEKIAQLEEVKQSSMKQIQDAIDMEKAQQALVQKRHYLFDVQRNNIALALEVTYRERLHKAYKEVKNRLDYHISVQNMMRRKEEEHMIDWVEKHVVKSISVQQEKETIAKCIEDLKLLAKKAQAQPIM

[4] = molecular target: IPI:IPI00123176.1_IPI:IPI00123176.1 (mouse)
[5] = molecular target: T3, Cplx2_IPI:IPI00111501.1 (mouse) (UniProt P84086)
T3 sequence (looked up): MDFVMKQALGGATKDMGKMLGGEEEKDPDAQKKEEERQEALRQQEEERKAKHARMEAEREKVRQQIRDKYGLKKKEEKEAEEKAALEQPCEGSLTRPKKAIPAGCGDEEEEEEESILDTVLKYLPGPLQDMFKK

[6] = molecular target: Slc1a2_IPI:IPI00230289.1 (mouse) (UniProt P43006)
[7] = molecular target: T4, Syngr3_IPI:IPI00331579.1 (mouse) (UniProt Q8R191)
T4 sequence (looked up): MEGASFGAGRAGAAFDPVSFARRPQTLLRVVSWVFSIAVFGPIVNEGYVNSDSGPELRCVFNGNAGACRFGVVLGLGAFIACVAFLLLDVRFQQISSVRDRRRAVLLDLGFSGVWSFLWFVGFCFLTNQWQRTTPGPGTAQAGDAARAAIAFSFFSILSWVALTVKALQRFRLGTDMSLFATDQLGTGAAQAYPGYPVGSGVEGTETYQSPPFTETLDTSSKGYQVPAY

[8] = molecular target: T5, Sfxn5_IPI:IPI00221602.1 (mouse) (UniProt Q925N0)
T5 sequence (looked up): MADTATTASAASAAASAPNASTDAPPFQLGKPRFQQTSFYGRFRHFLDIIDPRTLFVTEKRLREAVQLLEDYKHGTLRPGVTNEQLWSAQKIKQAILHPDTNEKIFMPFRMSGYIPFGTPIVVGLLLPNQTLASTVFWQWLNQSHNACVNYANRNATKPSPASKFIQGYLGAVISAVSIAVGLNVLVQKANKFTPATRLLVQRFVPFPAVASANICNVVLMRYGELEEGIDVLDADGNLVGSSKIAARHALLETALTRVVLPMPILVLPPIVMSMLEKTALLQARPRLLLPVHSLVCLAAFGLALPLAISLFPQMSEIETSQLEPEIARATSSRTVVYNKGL

[9] = molecular target: Cend1_IPI:IPI00122826.1 (mouse) (UniProt Q9JKC6)
[10] = molecular target: Rab15_IPI:IPI00170032.1 (mouse) (UniProt Q8K386)
[11] = molecular target: 5730469M10Rik_IPI:IPI00187272.3 (mouse)
[12] = molecular target: Coq3_IPI:IPI00467124.2 (mouse) (UniProt Q8BMS4)
[13] = molecular target: Tim23 (endogenous, mouse forebrain mitochondria) (mouse) (UniProt Q9WTQ8)
[14] = molecular target: 1700020C11Rik_IPI:IPI00315908.1 (mouse)
[15] = molecular target: Sccpdh_IPI:IPI00153266.1 (mouse) (UniProt Q8R127)
[16] = molecular target: Tim17a (endogenous, mouse forebrain mitochondria) (mouse) (UniProt Q9Z0V8)
[17] = molecular target: Rab5b_IPI:IPI00116563.2 (mouse) (UniProt P61021)
[18] = molecular target: Mrpl14_IPI:IPI00133778.1 (mouse) (UniProt Q9D1I6)
[19] = molecular target: Acp6_IPI:IPI00624175.1 (mouse) (UniProt Q8BP40)
[20] = molecular target: Asah1_IPI:IPI00125266.1 (mouse) (UniProt Q9WV54)
[21] = molecular target: Mtx1_IPI:IPI00112327.1 (mouse) (UniProt P47802)
[22] = molecular target: Idh3g_IPI:IPI00109169.1 (mouse) (UniProt P70404)
Chain of Idh3g_IPI:IPI00109169.1 (mouse) (P70404 40-393 limits assumed): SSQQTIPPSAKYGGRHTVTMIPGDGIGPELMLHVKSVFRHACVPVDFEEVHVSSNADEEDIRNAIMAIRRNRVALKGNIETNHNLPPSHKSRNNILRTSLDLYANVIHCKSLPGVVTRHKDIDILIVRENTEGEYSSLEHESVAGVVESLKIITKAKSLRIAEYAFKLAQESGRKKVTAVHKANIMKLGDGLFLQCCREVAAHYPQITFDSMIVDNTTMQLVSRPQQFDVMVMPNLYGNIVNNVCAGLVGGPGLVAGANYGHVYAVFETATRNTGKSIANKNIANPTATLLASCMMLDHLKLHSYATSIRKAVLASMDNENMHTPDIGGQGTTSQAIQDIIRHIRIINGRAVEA

Chain of Slc1a2_IPI:IPI00230289.1 (mouse) (P43006 whole entry): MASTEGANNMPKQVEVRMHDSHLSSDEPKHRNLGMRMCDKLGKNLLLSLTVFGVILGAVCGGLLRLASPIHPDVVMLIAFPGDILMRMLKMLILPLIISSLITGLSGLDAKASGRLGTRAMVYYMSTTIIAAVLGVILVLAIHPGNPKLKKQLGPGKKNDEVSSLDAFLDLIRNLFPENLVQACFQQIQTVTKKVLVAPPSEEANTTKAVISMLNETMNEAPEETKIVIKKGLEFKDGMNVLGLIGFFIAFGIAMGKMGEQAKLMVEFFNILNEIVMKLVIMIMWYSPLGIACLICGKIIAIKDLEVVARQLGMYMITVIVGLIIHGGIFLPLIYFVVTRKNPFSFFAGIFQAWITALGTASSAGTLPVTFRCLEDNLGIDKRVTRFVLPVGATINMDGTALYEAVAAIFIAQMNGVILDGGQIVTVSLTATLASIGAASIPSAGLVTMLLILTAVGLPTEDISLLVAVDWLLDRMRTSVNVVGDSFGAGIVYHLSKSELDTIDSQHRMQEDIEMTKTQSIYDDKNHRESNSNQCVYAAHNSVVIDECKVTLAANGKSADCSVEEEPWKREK
Chain of Tomm20_IPI:IPI00120715.1 (mouse) (Q9DCC8 whole entry): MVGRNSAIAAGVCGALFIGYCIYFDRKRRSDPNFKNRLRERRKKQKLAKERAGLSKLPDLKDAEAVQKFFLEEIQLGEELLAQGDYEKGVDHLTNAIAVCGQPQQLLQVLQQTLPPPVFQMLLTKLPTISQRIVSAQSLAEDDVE
Chain of Cend1_IPI:IPI00122826.1 (mouse) (Q9JKC6 whole entry): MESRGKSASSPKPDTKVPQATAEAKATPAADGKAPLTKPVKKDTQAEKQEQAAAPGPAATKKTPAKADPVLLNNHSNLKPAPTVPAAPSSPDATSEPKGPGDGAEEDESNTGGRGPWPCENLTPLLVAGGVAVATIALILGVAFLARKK
Chain of GST-Httex1-23Q (P08515 1-218, tags or fused parts left off): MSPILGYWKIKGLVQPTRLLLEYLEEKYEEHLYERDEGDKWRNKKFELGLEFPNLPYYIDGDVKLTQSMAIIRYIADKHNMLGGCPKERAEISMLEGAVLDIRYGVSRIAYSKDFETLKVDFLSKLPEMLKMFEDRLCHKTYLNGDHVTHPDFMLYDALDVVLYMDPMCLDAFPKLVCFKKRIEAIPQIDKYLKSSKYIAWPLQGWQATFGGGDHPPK
Chain of Sccpdh_IPI:IPI00153266.1 (mouse) (Q8R127 2-429 limits assumed): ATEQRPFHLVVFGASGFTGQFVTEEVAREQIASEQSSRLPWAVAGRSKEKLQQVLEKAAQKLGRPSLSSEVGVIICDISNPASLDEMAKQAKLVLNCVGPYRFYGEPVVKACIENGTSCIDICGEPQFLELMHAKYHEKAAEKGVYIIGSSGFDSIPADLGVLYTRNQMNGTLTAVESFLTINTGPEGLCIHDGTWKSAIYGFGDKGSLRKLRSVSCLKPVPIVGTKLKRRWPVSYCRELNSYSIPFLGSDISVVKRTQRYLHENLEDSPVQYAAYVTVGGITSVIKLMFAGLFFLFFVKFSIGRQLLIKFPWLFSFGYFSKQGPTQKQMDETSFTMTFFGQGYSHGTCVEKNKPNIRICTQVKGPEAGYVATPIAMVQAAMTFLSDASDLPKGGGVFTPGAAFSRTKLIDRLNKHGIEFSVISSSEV
Chain of Mrpl14_IPI:IPI00133778.1 (mouse) (Q9D1I6 31-145 limits assumed): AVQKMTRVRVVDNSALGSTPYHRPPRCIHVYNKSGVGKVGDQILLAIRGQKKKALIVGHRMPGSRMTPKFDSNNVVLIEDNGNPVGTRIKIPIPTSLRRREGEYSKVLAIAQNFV
Chain of Rab15_IPI:IPI00170032.1 (mouse) (Q8K386 whole entry): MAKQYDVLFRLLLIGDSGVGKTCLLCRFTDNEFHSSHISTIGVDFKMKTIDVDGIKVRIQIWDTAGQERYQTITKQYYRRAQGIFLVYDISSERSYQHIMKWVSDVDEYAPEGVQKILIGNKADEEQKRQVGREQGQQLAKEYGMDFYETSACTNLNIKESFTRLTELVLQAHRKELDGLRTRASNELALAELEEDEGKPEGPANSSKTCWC
Chain of Tim23 (endogenous, mouse forebrain mitochondria) (mouse) (Q9WTQ8 whole entry): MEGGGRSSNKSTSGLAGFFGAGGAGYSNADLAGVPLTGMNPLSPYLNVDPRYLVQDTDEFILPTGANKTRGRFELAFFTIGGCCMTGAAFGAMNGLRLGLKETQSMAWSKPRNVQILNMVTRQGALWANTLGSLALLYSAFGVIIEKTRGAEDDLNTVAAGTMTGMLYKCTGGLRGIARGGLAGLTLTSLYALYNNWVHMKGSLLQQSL
Chain of Tim17a (endogenous, mouse forebrain mitochondria) (mouse) (Q9Z0V8 whole entry): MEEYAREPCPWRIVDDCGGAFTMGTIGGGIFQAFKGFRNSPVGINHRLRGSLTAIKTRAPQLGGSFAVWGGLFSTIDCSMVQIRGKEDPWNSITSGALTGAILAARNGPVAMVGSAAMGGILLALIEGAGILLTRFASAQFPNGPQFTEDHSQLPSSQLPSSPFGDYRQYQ
Chain of 5730469M10Rik_IPI:IPI00187272.3 (mouse) (Q9CYH2 whole entry): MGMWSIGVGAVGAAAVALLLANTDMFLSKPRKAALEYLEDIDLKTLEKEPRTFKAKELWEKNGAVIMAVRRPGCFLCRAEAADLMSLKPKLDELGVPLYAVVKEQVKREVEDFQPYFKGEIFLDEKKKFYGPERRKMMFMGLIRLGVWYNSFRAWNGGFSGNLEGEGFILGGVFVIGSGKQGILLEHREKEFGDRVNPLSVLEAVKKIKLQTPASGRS
Chain of Rab5b_IPI:IPI00116563.2 (mouse) (P61021 2-215 limits assumed): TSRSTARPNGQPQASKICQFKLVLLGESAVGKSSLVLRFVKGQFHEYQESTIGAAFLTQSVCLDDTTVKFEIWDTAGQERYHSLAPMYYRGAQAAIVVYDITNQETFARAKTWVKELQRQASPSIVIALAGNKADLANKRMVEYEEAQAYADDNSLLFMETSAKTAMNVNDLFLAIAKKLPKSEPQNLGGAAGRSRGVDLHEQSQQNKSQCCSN
Chain of Asah1_IPI:IPI00125266.1 (mouse) (Q9WV54 19-394 limits assumed): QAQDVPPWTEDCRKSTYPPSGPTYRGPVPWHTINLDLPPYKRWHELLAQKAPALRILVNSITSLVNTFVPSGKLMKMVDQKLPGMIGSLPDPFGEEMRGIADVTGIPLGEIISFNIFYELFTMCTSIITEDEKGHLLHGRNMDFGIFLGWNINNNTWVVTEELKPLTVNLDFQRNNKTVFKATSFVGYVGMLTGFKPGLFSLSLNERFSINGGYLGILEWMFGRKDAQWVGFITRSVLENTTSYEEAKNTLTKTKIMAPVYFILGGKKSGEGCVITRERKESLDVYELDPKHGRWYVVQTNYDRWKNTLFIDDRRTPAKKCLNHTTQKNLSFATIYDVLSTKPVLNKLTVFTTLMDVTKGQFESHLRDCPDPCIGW
Chain of Mtx1_IPI:IPI00112327.1 (mouse) (P47802 whole entry): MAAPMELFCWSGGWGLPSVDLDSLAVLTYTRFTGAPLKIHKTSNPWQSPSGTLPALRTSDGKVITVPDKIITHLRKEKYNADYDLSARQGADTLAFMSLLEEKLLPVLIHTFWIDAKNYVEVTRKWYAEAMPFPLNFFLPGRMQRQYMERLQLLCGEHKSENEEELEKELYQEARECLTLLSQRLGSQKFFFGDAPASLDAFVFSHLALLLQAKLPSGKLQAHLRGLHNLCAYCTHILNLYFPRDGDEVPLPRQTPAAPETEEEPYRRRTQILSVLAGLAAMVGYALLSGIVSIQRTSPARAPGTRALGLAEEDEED
Chain of Coq3_IPI:IPI00467124.2 (mouse) (Q8BMS4 87-370 limits assumed): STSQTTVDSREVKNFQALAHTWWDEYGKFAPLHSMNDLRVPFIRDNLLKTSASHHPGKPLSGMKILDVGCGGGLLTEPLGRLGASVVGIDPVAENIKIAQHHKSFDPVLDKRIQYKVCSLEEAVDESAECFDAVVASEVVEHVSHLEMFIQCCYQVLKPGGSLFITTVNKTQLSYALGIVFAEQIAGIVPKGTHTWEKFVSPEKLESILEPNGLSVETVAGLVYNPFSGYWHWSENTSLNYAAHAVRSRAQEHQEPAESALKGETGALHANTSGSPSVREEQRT
Chain of 1700020C11Rik_IPI:IPI00315908.1 (mouse) (Q9CRB8 whole entry): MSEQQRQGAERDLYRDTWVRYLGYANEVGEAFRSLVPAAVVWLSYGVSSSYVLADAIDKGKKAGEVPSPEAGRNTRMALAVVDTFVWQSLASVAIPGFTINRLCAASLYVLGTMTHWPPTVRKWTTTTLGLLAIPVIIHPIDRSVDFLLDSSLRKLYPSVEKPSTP
Chain of Acp6_IPI:IPI00624175.1 (mouse) (Q8BP40 26-418 limits assumed): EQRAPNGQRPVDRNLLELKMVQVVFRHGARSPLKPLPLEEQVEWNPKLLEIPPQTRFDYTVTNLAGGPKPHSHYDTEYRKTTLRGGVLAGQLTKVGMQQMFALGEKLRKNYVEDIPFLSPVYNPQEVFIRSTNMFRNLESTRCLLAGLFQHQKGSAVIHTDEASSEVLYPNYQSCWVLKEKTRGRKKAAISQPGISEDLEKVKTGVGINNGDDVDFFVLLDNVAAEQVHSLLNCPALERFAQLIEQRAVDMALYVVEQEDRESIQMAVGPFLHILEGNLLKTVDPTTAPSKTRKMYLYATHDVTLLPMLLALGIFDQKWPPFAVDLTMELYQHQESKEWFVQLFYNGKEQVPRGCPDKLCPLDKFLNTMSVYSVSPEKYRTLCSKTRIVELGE

GST-Httex1-23Q (from UniProt P08515 1-218; P42858 1-88)
No. of total peptides [1]: 1 peptides
No. of unique peptides [1]: 1 peptides
No. of total peptides [2]: 1 peptides
No. of unique peptides [2]: 1 peptides
No. of total peptides [3]: 3 peptides
No. of unique peptides [3]: 3 peptides
No. of total peptides [4]: 1 peptides
No. of unique peptides [4]: 1 peptides
No. of total peptides [5]: 1 peptides
No. of unique peptides [5]: 1 peptides
No. of total peptides [6]: 1 peptides
No. of unique peptides [6]: 1 peptides
No. of total peptides [7]: 1 peptides
No. of unique peptides [7]: 1 peptides
No. of total peptides [8]: 3 peptides
No. of unique peptides [8]: 3 peptides
No. of total peptides [9]: 3 peptides
No. of unique peptides [9]: 3 peptides

GST-Httex1-97Q (from UniProt P08515 1-218; P42858 1-88)
No. of total peptides [1]: 1 peptides
No. of unique peptides [1]: 1 peptides
No. of total peptides [10]: 1 peptides
No. of unique peptides [10]: 1 peptides
No. of total peptides [11]: 1 peptides
No. of unique peptides [11]: 1 peptides
No. of total peptides [12]: 2 peptides
No. of unique peptides [12]: 1 peptides
No. of total peptides [13]: 1 peptides
No. of unique peptides [13]: 1 peptides
No. of total peptides [2]: 1 peptides
No. of unique peptides [2]: 1 peptides
No. of total peptides [3]: 4 peptides
No. of unique peptides [3]: 4 peptides
No. of total peptides [4]: 2 peptides
No. of unique peptides [4]: 2 peptides
No. of total peptides [14]: 1 peptides
No. of unique peptides [14]: 1 peptides
No. of total peptides [15]: 1 peptides
No. of unique peptides [15]: 1 peptides
No. of total peptides [5]: 6 peptides
No. of unique peptides [5]: 5 peptides
No. of total peptides [16]: 1 peptides
No. of unique peptides [16]: 1 peptides
No. of total peptides [6]: 1 peptides
No. of unique peptides [6]: 1 peptides
No. of total peptides [17]: 1 peptides
No. of unique peptides [17]: 1 peptides
No. of total peptides [18]: 4 peptides
No. of unique peptides [18]: 3 peptides
No. of total peptides [7]: 2 peptides
No. of unique peptides [7]: 2 peptides
No. of total peptides [19]: 2 peptides
No. of unique peptides [19]: 2 peptides
No. of total peptides [20]: 3 peptides
No. of unique peptides [20]: 3 peptides
No. of total peptides [8]: 6 peptides
No. of unique peptides [8]: 5 peptides
No. of total peptides [21]: 3 peptides
No. of unique peptides [21]: 3 peptides
No. of total peptides [9]: 5 peptides
No. of unique peptides [9]: 4 peptides
No. of total peptides [22]: 2 peptides
No. of unique peptides [22]: 2 peptides
